Results as given in the supplement of paper PMC9732359.
± gives the uncertainty stated by the source.

Experiment: protein stability index of a GFP-peptide fusion (yeast GPS) (PSI 1-4); higher = more stable; sorted into four equal gates, so the index is relative within each strain
Summary of the method: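 Sequencing reads from sorted gates were used to score each peptide. The library consisted of tiled 17-residue yeast protein peptides fused downstream of GFP on a Cherry-expressing plasmid, pooled and carried in yeast. Mid-log cultures in leucine-free medium were split into four equal gates by GFP/Cherry ratio, and each gate's plasmids were PCR-amplified and Illumina-sequenced. The protein stability index adds up, over all gates, the read frequency multiplied by the gate number.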

| Sequence | protein stability index (doa10∆) | protein stability index (pdr5∆) | protein stability index (san1∆) | protein stability index (ubr1∆) |
| --- | --- | --- | --- | --- |
| AELEELEEFEFKHGPMS [SMD2] | 3.42 ± 0.078 | 3.41 ± 0.063 | 3.15 ± 0.058 | 3.34 ± 0.071 |
| AELELVDSLDPFSEGVT [SMC4] | 2.84 ± 0.072 | 2.64 ± 0.061 | 2.75 ± 0.12 | 3.11 ± 0.054 |
| AELLVLKILKQVMEEKL [PUP2] | 2.73 ± 0.16 | 2.75 ± 0.087 | 2.69 ± 0.24 | 2.56 ± 0.24 |
| AEMEADSLASELTLAEQ [SMC4] |  |  | 2.94 ± 0.15 | 3.39 ± 0.26 |
| AENLLQLKTGLAAIVST [YGL172W/NUP49] |  | 3.3 ± 0.19 | 2.99 ± 0.087 | 2.5 ± 0.2 |
| AESFTDEADSSMTEASV [SNF2] | 3.36 ± 0.094 | 3.19 ± 0.092 | 3.39 ± 0.05 | 3.09 ± 0.089 |
| AFKATNQTNINSLAVRG [SCL1] | 3.1 ± 0.11 | 3.21 ± 0.085 |  | 2.84 ± 0.11 |
| AFKKIDAITVKDVKAWA [COR1] | 2.06 ± 0.076 | 1.91 ± 0.072 | 1.83 ± 0.14 | 1.9 ± 0.039 |
| AFKSVVSTETFEQPSQR [RPL27A] | 2.88 ± 0.062 | 2.82 ± 0.059 | 2.71 ± 0.053 | 3.11 ± 0.067 |
| AFPHLYNSRPRSVRIPW [PRP8] | 2.94 ± 0.1 | 2.45 ± 0.084 | 1.7 ± 0.13 | 2.59 ± 0.066 |
| AFPNASKKNRPTLQVGD [RRP40] | 2.09 ± 0.19 | 2.75 ± 0.11 | 2.78 ± 0.16 | 2.99 ± 0.17 |
| AFRTIESKSDDNSATSY [RRI1] | 3.06 ± 0.079 | 3.26 ± 0.079 | 3.15 ± 0.053 | 3.34 ± 0.091 |
| AFSPLTTTRIQSQQAQP [MED2] | 2.7 ± 0.055 | 2.83 ± 0.044 | 2.52 ± 0.061 | 2.8 ± 0.036 |
| AGDLRALDTVTNVLNFI [FAS1] | 3.04 ± 0.1 | 3.22 ± 0.14 | 2.95 ± 0.11 | 2.54 ± 0.24 |
| AGHVSGVITVHNVFSKE [RPN14] | 1.85 ± 0.15 | 1.75 ± 0.14 | 2.92 ± 0.077 | 2.79 ± 0.13 |
| AGKVKSQTPKVEKTEKP [RPS30A] | 3.18 ± 0.078 | 2.9 ± 0.093 | 2.95 ± 0.072 | 2.93 ± 0.055 |
| AGSAALKIIHDTFRWVG [RPO31] | 3.23 ± 0.093 | 2.85 ± 0.12 | 1.19 ± 0.17 | 3.24 ± 0.063 |
| AGSGSTFIYGYCDKNFR [PRE3] | 1.24 ± 0.085 | 1.42 ± 0.057 | 1.51 ± 0.099 | 1.49 ± 0.059 |
| AGVPRQAINLGQVVLTP [RPL14A] | 2.09 ± 0.15 | 2.64 ± 0.13 | 1.58 ± 0.23 | 2.04 ± 0.21 |
| AGVSHGTLGEIFIRCNN [SMX3] | 3.57 ± 0.14 | 3.37 ± 0.096 | 2.91 ± 0.094 | 3.29 ± 0.08 |
| AHDYNNDQDMFTIVSLV [YML103C/NUP188] | 2.76 ± 0.21 | 3.11 ± 0.16 | 3.23 ± 0.12 | 2.95 ± 0.13 |
| AHEISQGVYGAVYETLI [BRR2] | 3.33 ± 0.082 | 3.11 ± 0.07 | 3.16 ± 0.061 | 3.37 ± 0.082 |
| AHFWKPVLNLDKLWTLI [RPL28] | 2.22 ± 0.045 | 2.3 ± 0.047 | 2.09 ± 0.071 | 1.65 ± 0.032 |
| AHKGQIVLIKGISSAYI [SNU114] | 1.56 ± 0.07 | 1.48 ± 0.064 | 1.89 ± 0.069 | 1.86 ± 0.053 |
| AHMGVLLVLLQDVIKVL [SWP82] | 1.51 ± 0.068 | 1.58 ± 0.084 | 1.45 ± 0.1 | 1.51 ± 0.057 |
| AHNPELERYVKRCMDDL [RPO31] | 3.33 ± 0.062 | 3.45 ± 0.062 | 3.41 ± 0.037 | 3.35 ± 0.04 |
